Data set [1] has as its system glucocorticoid receptor (hGR) (Homo sapiens). Put plainly: cell_activity. Conditions: dexamethasone 1e-7 M, MTV-Luc in CV-1.
Data set [2] has as its target T1, thyroid hormone receptor alpha (rTRalpha) (Rattus norvegicus, UniProt P63059-2 P63059-2:1-410).
T1 sequence: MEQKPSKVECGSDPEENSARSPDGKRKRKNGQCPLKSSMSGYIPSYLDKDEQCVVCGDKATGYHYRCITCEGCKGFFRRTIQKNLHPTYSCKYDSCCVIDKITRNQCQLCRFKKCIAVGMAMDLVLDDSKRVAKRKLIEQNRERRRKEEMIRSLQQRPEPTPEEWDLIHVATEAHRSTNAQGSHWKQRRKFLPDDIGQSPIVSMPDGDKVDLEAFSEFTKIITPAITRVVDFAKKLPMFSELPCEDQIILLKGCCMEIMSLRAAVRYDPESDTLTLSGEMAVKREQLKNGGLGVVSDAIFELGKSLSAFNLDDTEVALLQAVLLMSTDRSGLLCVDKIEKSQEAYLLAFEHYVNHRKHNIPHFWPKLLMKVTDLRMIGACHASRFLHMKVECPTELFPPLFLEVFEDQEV
Put plainly: cell_activity; T3 100 nM stimulation of tk-TREp-CAT in CV-1; 80% decrease of basal activity without hormone. As to conditions: tags: RSV expression vector RS-rTRalpha in CV-1 cells.

The target of data set [3] is T2, retinoic acid receptor alpha (RARalpha) (UniProt P10276 P10276:1-462).
T2 sequence: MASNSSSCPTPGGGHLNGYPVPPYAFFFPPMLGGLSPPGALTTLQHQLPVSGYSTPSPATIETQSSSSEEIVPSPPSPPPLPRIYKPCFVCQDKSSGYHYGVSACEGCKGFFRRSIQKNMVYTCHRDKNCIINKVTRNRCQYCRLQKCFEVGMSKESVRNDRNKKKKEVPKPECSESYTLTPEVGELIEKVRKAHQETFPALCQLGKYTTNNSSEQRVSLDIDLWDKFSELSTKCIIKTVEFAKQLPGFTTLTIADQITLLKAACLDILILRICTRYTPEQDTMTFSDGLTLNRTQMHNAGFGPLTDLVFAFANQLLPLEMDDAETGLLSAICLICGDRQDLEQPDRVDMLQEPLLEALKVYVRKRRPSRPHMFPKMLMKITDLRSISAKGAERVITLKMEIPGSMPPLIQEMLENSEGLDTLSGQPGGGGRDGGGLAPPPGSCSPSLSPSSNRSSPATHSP
Put plainly: cell_activity; 100 nM RA, delta-MTV-TREp-CAT in CV-1.

In the case of “mouse mammary tumor virus (MTV) promoter”, in data set [1], the activity is 3000 fold.

B1: TREp palindromic thyroid response element (dsDNA)
DNA 1: TCAGGTCATGACCTGA
DNA 2: TCAGGTCATGACCTGA
Turning to B1, the activity in data set [2] was found to be 20 fold; in data set [3] it was 25 fold.

The values are drawn from patent publication US5602009, “Dominant negative chimeras of the steroid/thyroid superfamily of receptors” (The Salk Institute for Biological Studies).
